Among the data in PMC12400190, “Crystal structures of 40- and 71-substitution variants of hydroxynitrile lyase from rubber tree” (Acta Crystallographica Section D: Structural Biology, 2025) are Km, kcat and kcat/Km values, retold here.

What all share (conditions): 5 mM BES pH 7.2, 7-8% (v/v) acetonitrile
Series [1] has as its target T1, HbHNL (Hevea brasiliensis, UniProt P52704).
T1 construct: gene HNL; full length 257 aa; variant structures 8sni (HNL40), 9clr (HNL71); dimer
Put plainly: spectrophotometric ester hydrolysis at […] nm, Michaelis-Menten fit. Type of series: biochemical.

For series [2], the target named is T2, SABP2 (Nicotiana tabacum, UniProt Q6RYA0).
T2 construct: production of the assayed sample not described in the main text
T2 sequence (Q6RYA0 1-260): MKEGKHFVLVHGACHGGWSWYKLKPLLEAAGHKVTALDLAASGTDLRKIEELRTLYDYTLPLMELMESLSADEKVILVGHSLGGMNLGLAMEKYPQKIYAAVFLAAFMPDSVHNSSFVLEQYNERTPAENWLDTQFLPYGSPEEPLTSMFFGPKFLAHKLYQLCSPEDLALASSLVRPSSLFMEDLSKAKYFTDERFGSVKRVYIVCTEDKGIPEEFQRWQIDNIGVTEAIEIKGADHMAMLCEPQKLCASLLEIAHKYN
The series is described as above. It counts as biochemical.

For series [3], the system named is CC(=O)Oc1ccc([N+](=O)[O-])cc1. Put plainly: purified protein.

T1 sequence (P52704 whole entry): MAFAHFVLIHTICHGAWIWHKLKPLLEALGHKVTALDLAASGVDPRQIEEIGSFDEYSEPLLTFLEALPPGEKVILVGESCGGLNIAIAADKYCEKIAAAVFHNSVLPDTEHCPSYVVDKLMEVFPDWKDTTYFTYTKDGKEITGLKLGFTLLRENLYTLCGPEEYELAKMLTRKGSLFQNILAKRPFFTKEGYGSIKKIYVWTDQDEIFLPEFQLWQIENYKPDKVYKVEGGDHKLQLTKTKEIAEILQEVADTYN

With `CC(=O)Oc1ccc([N+](=O)[O-])cc1` [p-nitrophenyl acetate], the Km (in general, the concentration of substrate that gives half-maximal velocity) amounted to 3000 ± 400 µM in series [1] and 2200 ± 200 µM in series [2].
With “HbHNL (Hevea brasiliensis; C81L/E79H/F210I/H103V/I12A/I209G/K236M/L121Y/L146M/L148F/L152F/N104A/T11G/T151K/V106F/V118L)”, in series [3], the Km amounted to 600 ± 200 µM; the kcat (in general, the number of substrate molecules converted per active site and unit of time at saturation) stood at 0.00583 ± 0.000167 s⁻¹; the kcat/Km (usually the turnover number divided by the Michaelis constant) stood at 10.7 M⁻¹ s⁻¹.
